In the supplement of paper PMC9170038:

Tested on: K4 kissing-loop RNA reporter
Test: apparent KD of K4 kissing-loop reporter; higher = weaker reporter binding
Conditions: Eterna round: R107
Experimental: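 RNA-MaP round R107: designed RNA switches with theophylline, tryptophan, arginine or FMN aptamers are transcribed on-chip within common flanks. They are titrated with a labelled K4 kissing-loop RNA reporter in RNA-MaP buffer (100 mM Tris pH 7.5, 80 mM KCl, 4 mM MgCl2), without ligand or with the indicated ligand. Median apparent KD per design.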

[1] = input ligand: theophylline 20 uM
[2] = input ligand: tryptophan 2.4 mM
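Further: bound reporter read as fluorescence of individual clusters on recovered sequencing chips by microscopy, with normalized cluster intensities fitted with a binding model.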

Sequence | apparent KD of K4 kissing-loop reporter (input ligand: FMN 200 uM) | apparent KD of K4 kissing-loop reporter (input ligand: arginine 13.2 mM) | apparent KD of K4 kissing-loop reporter (input ligand: none) | apparent KD of K4 kissing-loop reporter [1] | apparent KD of K4 kissing-loop reporter [2]
GGAGGAGAAUAUGAUACCAGCAGAGAGAGAGAGGAAGUAUAGUGAUGUUAUAUGUGAGAAUGCCCUUGGCAGCAUAACAAGAAGG [whbob_SS_Theo_B_sa88] | 121 nM | 225 nM | 194 nM | 116 nM | 122 nM
UAUAUAGUGACGGCCGCCACUAUAUUAAUGUUUAGGUUAGAGUGAUGUUUUGAUUAAUAUUUUUAUAGGACCGGGUUAUAUGUUA [xerrmullin] | 563 nM | 314 nM | 511 nM | 739 nM | 428 nM
AGUGUGCAAAAGCACACUCAGUACAAGGACAAGGAUAUCUACUAAUAGAGAAGGUGUCCUUUCCUUAGUGAUGUUAAGGAGCUGA [Omei KL FMN A SS D v2] | 177 nM | 295 nM | 339 nM | 347 nM | 368 nM
UCCUUUGUUGCCAGUGAUGUUGGACAGGAAGGAGCGGGCAUAAGCCCAGGUAGGUCGCCUGUCAACUUUCUUAUAGCCCUAAGGU [KL-XArg-A16] | 343 nM | 329 nM | 372 nM | 323 nM | 337 nM
AAAUUUAAUAUAUUUAAUUAAUUAAGUGAUACCAGACAUUAAUAAGUCCCUUGGCAGCACAAUGCAGUGAUGUUGCUUAUAAUAA [JR_SSTheophyA_Sub009] | 129 nM | 120 nM | 76.6 nM | 169 nM | 76.3 nM
AGGUACAAAAGUACCGCUAGAUCCACGGAAGGAGCGCCCGAAAGGGCAGGUAGGUCGCCGGGCAGUGAUGUUGCCGGAUCUAGCA [Omei KL Arginine A SS A v6] | 162 nM | 163 nM | 156 nM | 181 nM | 139 nM
GUGCAGUGAUGUUGCACGAGGAAAGACGAUACCAGCCGUAAAUAUGGCCCUUGGCAGCGUGGGCUAGCACAAAAUGUGCUAGUCU [Zareatza] | 127 nM | 109 nM | 116 nM | 107 nM | 98.2 nM
AACAACUUGUUUGUCGGGUGUUCGCGCGAUACCAGCCGAAUGGAUGGCCCUUGGCAGCGCAGCGAGUGAUGUUCGCCCGCUUGAC [Exclusion Theophylline A GF 24] | 611 nM | 422 nM | 552 nM | 529 nM | 583 nM
GUGGUUUACGUAGGAUAUCGGUGAUGAGUAAAUGGAGUGAUGUUCCGAGAUUGAAUAUGAGAUGAGCGAGAAGGGCGGUUUAUGC [FMN B Same State; Euporia Solution 3] | 60.8 nM | 77.3 nM | 63.1 nM | 89.7 nM | 54.7 nM
AAACUUGCAGUGAUGUUGCAAGUAGGUGAUACCAGCAUCGAAAGAUGCCCUUGGCAGCACCAACACUGUAAGUAAGUAUCACCAA [(H1)-(H2)-(T1)-(T2)-(H)'-(T)'_Design2] | 110 nM | 120 nM | 117 nM | 139 nM | 105 nM
GCCGUACGCAUGGAUACCAGCCGACCUGAUGUUAAGCUGGUGCCGUAGUGAUGUUACGAAGGCCCUUGGCAGCCAUGCGUACGGC | 211 nM | 147 nM | 209 nM | 176 nM | 196 nM
CCGGAUUAUGCGGCCGCCACUGAGAAAUUGGAGGUACGCCCUCCCGAUAGUGAUGUUAUCCAUUACAGGACCGGGCAUCUCCUCU [theeternabot_sameState_KL_Trp_B_23] | 779 nM | 421 nM | 893 nM | 500 nM | 325 nM
CAUACGCAUGGAGGAUAUGAGAUUUCUCAUGUCAUUUAAUAUUCUCAGUGAUGUUGAGAAUUUGGCUCAGAAGGCCAUGUGUAUG [Ex FMN B 20] | 254 nM | 465 nM | 508 nM | 426 nM | 403 nM
AAUUUAUAUUUAUUCUUUAAAUGUUCAGAAGGAGCGUGAAUUAUCACAGGUAGGUCGCUGAGCUAGUGAUGUUGGCUAUAUACUA [whbob_Ex_Arginine_A_2t124] | 167 nM | 219 nM | 202 nM | 217 nM | 138 nM
AAAAUAAAGCAGUGAUGUUGCUUAUGAGAAGGAGCGCACGAAAGUGCAGGUAGGUCGCUCAGCCAAGUGGACGAAAACGUCCACA [#OpenEnded 10 #K4Early] | 112 nM | 122 nM | 123 nM | 144 nM | 90.4 nM
UAUCGAGUGAUGUUCGAUGUAGUGCAUUCAGAGGAUAUAGGAUGGGCUAGAAGGCUGAAAAGUGCUUCGAGUGAUGUUCGAAGAU [Exclusion FMN A GF 5] | 63.8 nM | 49.2 nM | 80.3 nM | 57.6 nM | 65.3 nM
UUUAUAUAGUCGGCCGCCACUGGAUUAAUAUUUGUAUAAUCUAGAUCAAAGUGAUGUUUUGAGUCCAGGACCGGGACAUUUGUUA [JR_ExcTryptoB_Sub006] | 539 nM | 391 nM | 486 nM | 525 nM | 427 nM
CUUGGAAGGACGGCCGCCACUCGACGGAGUGAUGUUCCGUGUGGGUAGCGCAGUGAUGUUGUGUCGAGGACCGGGUCCUAGGAAU [Exclusion Tryptophan B GF 28] | 181 nM | 115 nM | 143 nM | 160 nM | 77.7 nM
ACUGGAAUUGUACUCCAGUGAUGUUGGAGGCAGGAUAUCCAGUAAAGGAGAAGGGCCAUCGCGCUAUUUAGCCGCAGGCGGCUAA [Atrilazaed] | 251 nM | 130 nM | 126 nM | 136 nM | 131 nM
CGCCGGAAGGCGGUCGCUCCCACUCCGGAAGGAGCGCCCGGAAGGGCAGGUAGGUCGCCGGAGUGAUGUUCCGGUGGAGGGACCG [#2 Exclusion - Arginine A Attempt #10 (Inspired by Omei)] | 230 nM | 117 nM | 113 nM | 111 nM | 109 nM
GCGGGCCAGACGGCCGCCACUCCGGGCAGUGAUGUUGCGAAUCUUCUACUAGAGUGAUGUUCUACGAGGACCGGGUCGGAACGCG [Exclusion Tryptophan B Gf 14] | 458 nM | 384 nM | 569 nM | 502 nM | 289 nM
AACACUCACGGAGUGAUGUUCUGGAAUAAACGAGGACCGGUACGGCCGCCACUCGAAAAUGAGUGAGUCCUACGAAAAGUAGGAC [Omei inspired 4] | 357 nM | 394 nM | 361 nM | 405 nM | 108 nM

Sequence | apparent KD of K4 kissing-loop reporter (input ligand: FMN 200 uM) | apparent KD of K4 kissing-loop reporter (input ligand: arginine 13.2 mM) | apparent KD of K4 kissing-loop reporter (input ligand: none) | apparent KD of K4 kissing-loop reporter [1] | apparent KD of K4 kissing-loop reporter [2]
UCCACGCUUAGAGGAUAUCGGAUUAGAGUGAUGUUCUAAAGACGCCCAGUGAUGUUGGAUGGUAUACGAGAAGGCUGUGGCGUGU [Same State FMN B GF5] | 219 nM | 539 nM | 551 nM | 622 nM | 410 nM
UUAUAUACGAGUGAUGUUCGUUAUUUAUCAGAGGAUAUGCUUAAAUGCAGAAGGCUGUAUUUCUAUUUGAUAUUAAAUUUUAUAA [JR_Nu3_ExcFMNA_Sub026] | 90.8 nM | 89.8 nM | 66.8 nM | 86.1 nM | 57.3 nM
UAAGAAUAAGUAGCAGUGAUGUUGCUACUGCGAGGACCGGUACGGCCGCCACUCGAGUCCUCGAAACAUCACUGAACGAGGAAUA [whbob_SS_Tryp_A_m11] | 298 nM | 190 nM | 193 nM | 319 nM | 270 nM
CGAGUGAUGUUCGUUUUUUACUUUUUUUGACAGGAUAUGCGGAAACGCAGAAGGGUCACCUUUGAGUUAAAAGAAGUUAUUUUUU [Ex FMN A 18] | 262 nM | 267 nM | 317 nM | 271 nM | 249 nM
AAUUUACAAUAAUCAUUUAAAGGAUCAGAAGGAGCGUGUUAUAACACAGGUAGGUCGCUGAGCGAGUGAUGUUCGCUAUAUACAA [JR_ExcArginiA_Sub002] | 76.3 nM | 97.7 nM | 90.8 nM | 99.8 nM | 64.5 nM
AAAUAAGCUCAUGAUACCAGCCAGUGAUGUUGGUUGGUCCACCGUGUCCGAACAUUAAGCGGCCCUUGGCAGCAUGAUGCGCGUA [Xearxea] | 125 nM | 98.5 nM | 90.1 nM | 119 nM | 118 nM
UGAUAGGACAGAAGGAGCGGAGCUGGUCAAAGACCAGCAAUAACGUUGAAAGGAGUGAUGUUCCAGGUAGGUCGCUGUCCUAUCU [ArgBX 26 #SwitchBubble #StaticStem] | 121 nM | 130 nM | 120 nM | 163 nM | 93.7 nM
UUAUUAAUCACAGAUACCAGUCCAGAAUGAAUACUAUAGUGAUGUUAUAAUAAAGGGAAGGACCCUUGGCAGCUGUAAUAUAUUU [AstrosSsTheB#2] | 525 nM | 370 nM | 499 nM | 354 nM | 320 nM
CGUUUAUAGCAGGAUACCAGUACCCAUUAUGUACGUUAAUAGUAGAGUGAUGUUCUAAAGUACCCUUGGCAGCUUCCCGUGACCC [ExTheophylB.Y] | 119 nM | 183 nM | 140 nM | 176 nM | 94.7 nM
AGUGAGUGAUGUUCACUGUACGUGUCUGAAGGAGCGACAUCGAUGUCAGGUAGGUCGCAGACAUGUCAUCUAUGGUGCGUGACCA [Arg A SS t10] | 124 nM | 116 nM | 129 nM | 163 nM | 118 nM
GCCUAGCAGCGAAGGAGCGCCAGGAGAAGAAAUGGAGAGAGUUGAGUGAUGUUCAAAUGGUGGCAGGUAGGUCGCGCUGCUAGGC [#08 K4 Arginine B Same State] | 559 nM | 261 nM | 432 nM | 444 nM | 377 nM
UAAUCCUAAUGAUAAUAAUCAAGUGGUGGACGAGGACCGGUACGGCCGCCACUCGAAAAUGCAGUGAUGUUGUAAUACGGAUAAU [Exclusion - Tryptophan A (Freestyle 3)] | 288 nM | 460 nM | 372 nM | 541 nM | 247 nM
UGUACUAUUGUGAGUGAUGUUCACUUCGAUACCAGCAGAGCGAUCUGCCCUUGGCAGCGAGUUAACUGCCGAAAGGCAAGGAUUA [Theo B SS t9] | 535 nM | 528 nM | 546 nM | 546 nM | 378 nM
UGCCGGAAGGCGAGCGCUCCCACUCCGGAAGGAGCGCCCGUAAGGGCAGGUAGGUCGCCGGAGUGAUGUUCCGGUGGAGGGCUCG [#2 Exclusion - Arginine A Attempt #22 (Inspired by Omei)] | 203 nM | 128 nM | 193 nM | 185 nM | 244 nM
GGCACUUUUGGUAGAAACCAUCUACCUCUAUAGGAUAUGCCGAAAGGCAGAAGGAUAGACCUACAGAGUGAUGUUCUGCGUGCCU | 692 nM | 406 nM | 719 nM | 460 nM | 503 nM
AGAGUUAUGAGAGGAUAUGCGGCUAGUACUCAAAGAGUACUAGCAGCGGAGUGAUGUUCUGCGAAAGCAGAAGGUUCAUAACUCA [#08 K4 FMN B Same State] | 214 nM | 622 nM | 1710 nM | 1110 nM | 1050 nM
AUCGUUGUCUGAGGAUAUCGGUUAUCUGUAGUGAUGUUACAGUAUAUUGAUAUUAUAGUUUCUUUUCGAGAAGGCAGACUACGUA [JR_Nu_ExcFMNB_Sub021] | 74.1 nM | 61.3 nM | 68.9 nM | 65.4 nM | 66.4 nM
AACUGUCAAGGCCAACAUUACUGAGGUGAUACCAGCAUCGAAAGAUGCCCUUGGCAGCACCGACUUGCAGUGAUGUUGCAAGUAA [BrourdMod 12 - Jieux - Exclusion - Theophylline A] | 329 nM | 266 nM | 333 nM | 370 nM | 287 nM
GUUCUGAUGGAAACAUCGGAACAUACUGAUACCAGUAUCGAUAGAUACCCUUGGCAGCAGAAUCAGUAAUAACGAGUGAUGUUCG [Ex Theophylline A K4 2] | 275 nM | 247 nM | 293 nM | 273 nM | 257 nM
GGAUAGGAUAGAGGAUAUGGGCUAGGCAAGAAUAACUUGUCUAGCAAAUCCAUGAGGAGUGAUGUUCCAGAAGGCUAUCCUAUCG [FmnBX 1 U9+A77] | 960 nM | 160 nM | 164 nM | 145 nM | 155 nM
GGUAGCAUGGCGGCCGCCACUUUUACUGGAUCGGAAACGAUCCAGUAUUGUGUAGUGAUGUUACAAAGGACCGGGCCAUGCUACC | 201 nM | 188 nM | 180 nM | 189 nM | 167 nM
